# Assay results as given in US20200377573A1 (Daiichi Sankyo, published 2020).
# Changes are numbered by the printed parent chain.
# B1: peptide derivative H322AT (designed binder)
# chain: DPQFGLFSKYRTPNCSQHEGMACYALYEPVCGSDMSTYANECTLCMKIREGGHNIKIIRNGPCGG
# B2: peptide H218 (designed binder)
# chain: B1 chain with S16L, Q17K, H18S, L26Y
# B3: peptide H308 (designed binder)
# chain: B1 chain with Q17D, E19A, Y24V, A39E, T43V
# B4: peptide derivative H321AT (designed binder)
# chain: B1 chain with Q17D, H18F, E19D, L26F
# B5: peptide H321 (designed binder)
# chain: B1 chain with Q17D, H18F, E19D, L26F, A39M, T43A
# B6: peptide H322 (designed binder)
# chain: B1 chain with A39V, T43A
# B7: peptide derivative H308AT (designed binder)
# chain: B1 chain with Q17D, E19A, Y24V
# B8: peptide M7 (designed binder)
# chain: B1 chain with Q17D, E19A, Y24V, L26F
# B9: peptide H223 (designed binder)
# chain: B1 chain with S16T, Q17M, H18D, E19M, Y24W, L26F
# B10: peptide H228 (designed binder)
# chain: B1 chain with S16G, Q17H, H18Y, E19N, M21W, Y24Q, L26F, Y27F
# B11: peptide derivative H308_D1G_S16A (designed binder)
# chain: B1 chain with D1G, S16A, Q17D, E19A, Y24V, A39E, T43V
# B12: peptide derivative H321AT_D1G_S16A (designed binder)
# chain: B1 chain with D1G, S16A, Q17D, H18F, E19D, L26F
# B13: peptide derivative H322AT_D1G_S16A (designed binder)
# chain: B1 chain with D1G, S16A
# Target: T1, HTRA1 (full) (human, UniProt Q92743 23-480)
# T1 sequence (Q92743 23-480): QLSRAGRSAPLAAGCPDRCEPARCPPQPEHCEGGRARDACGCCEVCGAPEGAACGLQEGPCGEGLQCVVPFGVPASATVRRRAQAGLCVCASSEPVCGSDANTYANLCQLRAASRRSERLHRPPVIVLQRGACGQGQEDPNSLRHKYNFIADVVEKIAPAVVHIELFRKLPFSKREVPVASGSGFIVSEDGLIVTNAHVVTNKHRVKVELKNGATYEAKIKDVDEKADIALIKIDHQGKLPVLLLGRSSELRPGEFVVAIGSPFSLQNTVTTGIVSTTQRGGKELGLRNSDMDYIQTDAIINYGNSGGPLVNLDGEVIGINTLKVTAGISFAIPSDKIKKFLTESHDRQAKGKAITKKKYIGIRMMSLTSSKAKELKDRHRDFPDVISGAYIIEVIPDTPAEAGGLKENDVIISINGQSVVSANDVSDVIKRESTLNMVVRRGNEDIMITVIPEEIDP
# Assay: cell-based or functional assay
row,Binder,"IC50 (nM) for HTRA1 (full), decomposition rate of substrate peptide H2-Opt"
1,B1,25 nM
2,B2,55 nM
3,B3,15 nM
4,B4,18 nM
5,B5,29 nM
6,B6,17 nM
7,B7,31 nM
8,B8,24 nM
9,B9,66 nM
10,B10,38 nM

# Target: T2, HTRA1 (cat) (human, UniProt Q92743 158-373)
# T2 sequence (Q92743 158-373, form in doubt): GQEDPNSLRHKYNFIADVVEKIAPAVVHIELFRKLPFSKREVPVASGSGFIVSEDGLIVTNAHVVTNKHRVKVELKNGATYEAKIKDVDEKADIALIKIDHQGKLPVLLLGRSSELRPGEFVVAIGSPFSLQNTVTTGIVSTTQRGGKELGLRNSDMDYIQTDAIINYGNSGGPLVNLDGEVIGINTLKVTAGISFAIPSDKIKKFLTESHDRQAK
# Assay: cell-based or functional assay
row,Binder,"IC50 (nM) for HTRA1 (cat), decomposition rate of substrate peptide H2-Opt"
1,B1,45 nM
2,B2,72 nM
3,B3,37 nM
4,B4,46 nM
5,B5,48 nM
6,B6,50 nM
7,B7,49 nM
8,B8,43 nM
9,B9,41 nM
10,B10,71 nM

# Target: T1, HTRA1 (full)
# Assay: cell-based or functional assay
# Remark: another data set of the same source
row,Binder,"IC50 (nM) for HTRA1 (full), decomposition rate of substrate peptide H2-Opt"
1,B11,9.1 nM
2,B12,12 nM
3,B13,12.2 nM

# Target: T2, HTRA1 (cat)
# Assay: cell-based or functional assay
# Remark: another data set of the same source
row,Binder,"IC50 (nM) for HTRA1 (cat), decomposition rate of substrate peptide H2-Opt"
1,B11,7.9 nM
2,B12,9 nM
3,B13,12.9 nM
